Measured values from patent US12037395 (IMMVIRA, dated 2024).
Residue numbers refer to the chain shown, from its start. One block for each binder: values may come before it.

Experiments:
[1] = biological target: T1, recombinant human PD-1-his (Sino biological, #10377-H08H) (human, UniProt Q15116 25-167); assay: SPR (Biacore) as in Example 2
T1 construct: Bought protein; also called Human PD-1-his protein; not shown: his tag

[2] = biological target: T2, cynomolgus monkey PD-1-his protein (Acro biosystems, #PD-1-C5223) (cynomolgus monkey, UniProt B0LAJ3 25-170); assay: SPR (Biacore T200), antibody captured, antigen flowed
T2 construct: Bought protein; also called Cynomolgus PD-1; Cynomolgus PD1
Source text: (§1) Briefly, goat […] (GE healthcare, Cat #BR100839, Human Antibody Capture Kit) was covalently linked to a CM5 chip (carboxy methyl dextran coated chip) via primary amines, using a standard amine coupling kit (GE healthcare, Pittsburgh, PA, USA) provided by Biacore. Unreacted moieties on the biosensor surface were blocked with ethanolamine. […] Then, recombinant human PD-1-his (Sino biological, #10377-H08H) or cynomolgus monkey PD-1-his protein (Acro biosystems, #PD-1-C5223) in HBS EP buffer (provided by Biacore) was flowed onto the chip at a flow rate of 30 μL/min. The antigen-antibody association kinetics was followed for 2 minutes and the dissociation kinetics was followed for 10 minutes. The association and dissociation curves were fit to a 1:1 *Langmuir* binding model using BIA evaluation software.

[3] = biological target: T1, recombinant human PD-1-his (Sino …); assay: as above
Source text: as §1

[4] = biological target: T3, biotin-labeled human PD-1 Fc protein (human, biotin-labeled (sites not given)); assay: capture ELISA: antibody captured by anti-IgG Fc, biotin PD-1-Fc 60 nM
T3 construct: also called PD-1-Fc-biotin

[5] = biological target: T3, biotin-labeled human PD-1 Fc protein; assay: competition ELISA: blocks biotin PD-1-Fc binding to coated PD-L1-Fc
Description: The next day, plates were washed with wash buffer (PBS+0.05% Tween-20, PBST), and blocked with 5% non-fatty milk in PBST for 2 hours at 37° C. Plates were then washed again using wash buffer.
After incubation at 37° C. for 40 minutes, plates were washed for 4 times using wash buffer. […] Plates were washed again using wash buffer. Finally, TMB was added and the reaction was stopped using 1M H_2SO_4, and the absorbance was read at 450 nm. Data were analyzed using Graphpad Prism software and $IC50$ values were reported.

[6] = biological target: human PD-1 on PD-1 Effector Cell Line (Genscript, GS-J2/PD-1) (human, UniProt Q15116 25-288); assay: cell-based or functional assay
[7] = biological target: T3, biotin-labeled human PD-1 Fc protein; assay: competition ELISA: blocks biotin PD-1-Fc binding to coated Nivolumab (competitor)
Description: The next day, plates were washed with wash buffer, and blocked with 5% non-fatty milk in PBST for 2 hours at 37° C. […] Plates were finally washed using wash buffer. TMB was added and the reaction was stopped using 1M H_2SO_4, and the absorbance was read at 450 nm. Data were analyzed using Graphpad Prism software and $IC50$ values were reported.

Kd [1]: 3.88 nM
B1: humanized anti-PD-1 antibody huC1E1-V1 (antibody, human IgG1, kappa)
heavy: not shown
light: EIVLTQSPATLSLSPGERATLSCRASKSVDDSGISFMHWFQQKPGQPPRLLIYAASNQGSGVPARFSGSGSGTDFTLTISSLEPEDFAVYFCHQTKEVPWTFGQGTKVEIKRTVAAPSVFIFPPSDEQLKSGTASVVCLLNNFYPREAKVQWKVDNALQSGNSQESVTEQDSKDSTYSLSSTLTLSKADYEKHKVYACEVTHQGLSSPVTKSFNRGEC
notes: Human IgG1/kappa, expressed in 293F cells

Kd [1]: 2.95 nM
B2: humanized anti-PD-1 antibody huC1E1-V4 (antibody, human IgG1, kappa, V domains shown)
VH: EVQLVESGGGVVQPGRSLRLSCAASGFTFSSYLMSWVRQAPGKGLEWVATISGGGGDTYFPDSVKGRFTISRDNSKNTLYLQMNSLRAEDTAVYYCVRFGGAGYYWYFDVWGAGTLVTVSS
VL: EIVLTQSPATLSLSPGERATLSCRASKSVDDSGISFMHWFQQKPGQAPRLLIYAASNQGSGVPARFSGSGSGTDFTLTISSLEPEDFAVYFCHQTKEVPWTFGQGTKVEIKR
notes: as for B1

Kd [1]: 4.52 nM
B3: humanized anti-PD-1 antibody huC1E1-V3 (antibody, human IgG1, kappa, V domains shown)
VH: B2 VH
VL: B2 VL with F40Y, A47P
notes: as for B1

Kd [1]: 2.49 nM
B4: humanized anti-PD-1 antibody huC1E1-V2 (antibody, human IgG1, kappa)
heavy: not shown
light: B1 light
notes: as for B1

Kd [2]: 3.9 nM
kon [2]: 203000 M⁻¹ s⁻¹
Kd [3]: 0.342 nM
koff [3]: 5.88e-05 s⁻¹
kon [3]: 172000 M⁻¹ s⁻¹
EC50 [4]: 0.16 nM
IC50 [5]: 0.26 nM
Reporter Activation (EC50, nM) human PD-1 cell (NFAT-luc)/human PD-L1 cell [6]: 9.11 nM
IC50 [7]: 1.1 nM
B5: mouse anti-PD-1 monoclonal antibody C1E1 (antibody, mouse IgG1, kappa)
heavy: EVMLVESGGGLVKPGGSLKLSCAASGFTFSSYLMSWVRQTPEKRLEWVATISGGGGDTYFPDSVKGRFTISRDNVKNNLYLQMSSLRSEDTALYYCVRFGGAGYYWYFDVWGAGTTVTVSSAKTTPPSVYPLAPGSAAQTNSMVTLGCLVKGYFPEPVTVTWNSGSLSSGVHTFPAVLQSDLYTLSSSVTVPSSTWPSETVTCNVAHPASSTKVDKKIVPRDCGCKPCICTVPEVSSVFIFPPKPKDVLTITLTPKVTCVVVDISKDDPEVQFSWFVDDVEVHTAQTQPREEQFNSTFRSVSELPIMHQDWLNGKEFKCRVNSAAFPAPIEKTISKTKGRPKAPQVYTIPPPKEQMAKDKVSLTCMITDFFPEDITVEWQWNGQPAENYKNTQPIMDTDGSYFVYSKLNVQKSNWEAGNTFTCSVLHEGLHNHHTEKSLSHSPGK
light: not shown
notes: Purified from hybridoma; also called clone C1E1

Kd [2]: 18.1 nM
koff [2]: 0.00249 s⁻¹
kon [2]: 138000 M⁻¹ s⁻¹
Kd [3]: 0.372 nM
koff [3]: 0.000131 s⁻¹
kon [3]: 353000 M⁻¹ s⁻¹
EC50 [4]: 0.16 nM
IC50 [5]: 0.21 nM
Reporter Activation (EC50, nM) human PD-1 cell (NFAT-luc)/human PD-L1 cell [6]: 7.58 nM
IC50 [7]: 0.87 nM
B6: mouse anti-PD-1 monoclonal antibody C1F5 (antibody, mouse IgG1, kappa, V domains shown)
VH: EVQLVESGGGLVKPGGSLKLSCAASGFAFSSYDMSWVRQTPEKRLEWVAYITGGGSSSFYPDTVKGRFTISRDNSKNTLYLQMTSLRSEDTAMYYCASPYLSYFDYWGQGTTLTVSS
VL: DIVLTQSPATLSVTPGDSVSLSCRASQSISNNLHWYQQKSHESPRLLIKYGSQSMSGIPSRFSGSGSGTDFTLVINSVETEDFGMYFCQQSNSWPLTFGAGTKLELKR
notes: Purified from hybridoma; Constant regions tied only generically to 'mouse antibodies'

Kd [2]: 17.3 nM
koff [2]: 0.00521 s⁻¹
kon [2]: 301000 M⁻¹ s⁻¹
Kd [3]: 2.3 nM
koff [3]: 0.000359 s⁻¹
kon [3]: 156000 M⁻¹ s⁻¹
EC50 [4]: 0.25 nM
IC50 [5]: 0.43 nM
Reporter Activation (EC50, nM) human PD-1 cell (NFAT-luc)/human PD-L1 cell [6]: 13.2 nM
IC50 [7]: 2.26 nM
B7: mouse anti-PD-1 monoclonal antibody C1F4 (antibody, mouse IgG1, kappa, V domains shown)
VH: QVQLQQSGAELVRPGVSVKISCKGSGYKFTDYAMHWVRQSHAKSLEWIGIISTYSGDVSFNQNFKGKATMTVDKSSSTAYMELARLTSEDSAIYYCSRLGITAGFAYWGQGTLVTVSA
VL: DIVMTQSQKFMSTSVGDRVTITCKASQNVRTAVAWYQQKPGQSPKALIYLASNRHTGVPDRFTGSGSGTDFTLTISNVQSKDLADYFCLQHWNYPYTFGGGTKLEIKR
notes: as for B6

Kd [2]: 112 nM
koff [2]: 0.00292 s⁻¹
kon [2]: 26000 M⁻¹ s⁻¹
Kd [3]: 2.83 nM
koff [3]: 0.000577 s⁻¹
kon [3]: 204000 M⁻¹ s⁻¹
EC50 [4]: 0.24 nM
IC50 [5]: 0.2 nM
Reporter Activation (EC50, nM) human PD-1 cell (NFAT-luc)/human PD-L1 cell [6]: 10.8 nM
IC50 [7]: 2.13 nM
B8: mouse anti-PD-1 monoclonal antibody D1F1 (antibody, mouse IgG1, kappa, V domains shown)
VH: EVMLVESGGGLVKPGGSLKLSCAASGFTFSSNTMSWVRQTPEKRLEWVAAISGGGVNTYYPDSVKGRFTISRDNARNTLYLQMSSLRSEDTALYYCARHGNYNYYGMDYWGQGTSVTVSS
VL: not shown
notes: as for B6

Kd [2]: 116 nM
koff [2]: 0.00238 s⁻¹
kon [2]: 20600 M⁻¹ s⁻¹
Kd [3]: 1.77 nM
koff [3]: 0.000307 s⁻¹
kon [3]: 173000 M⁻¹ s⁻¹
EC50 [4]: 0.2 nM
IC50 [5]: 0.21 nM
Reporter Activation (EC50, nM) human PD-1 cell (NFAT-luc)/human PD-L1 cell [6]: 14.7 nM
IC50 [7]: 1.89 nM
B9: mouse anti-PD-1 monoclonal antibody D2C2 (antibody, mouse IgG1, kappa, V domains shown)
VH: B8 VH with N57D
VL: not shown
notes: as for B6

Kd [2]: 12.5 nM
koff [2]: 0.00298 s⁻¹
kon [2]: 238000 M⁻¹ s⁻¹
Kd [3]: 2.88 nM
koff [3]: 0.000442 s⁻¹
kon [3]: 153000 M⁻¹ s⁻¹
EC50 [4]: 0.2 nM
IC50 [5]: 0.25 nM
Reporter Activation (EC50, nM) human PD-1 cell (NFAT-luc)/human PD-L1 cell [6]: 11.1 nM
IC50 [7]: 1.49 nM
B10: mouse anti-PD-1 monoclonal antibody C1E2 (antibody, mouse IgG1, kappa, V domains shown)
VH: QVQLQQSGAELVRPGTSVKISCKASGYTFTNYWLGWVKQRPGHGLEWIGDIYPGGGYTNYNENFKGKATLTADTSSSTAYMQLSSLTSEDSAVFFCARGYGTNYWYFDVWGAGTTVTVSS
VL: SIVMTQTPKFLLVSAGDRVTITCKASQSVSNDVAWYQQKPGQSPKLLIYYAFHRYTGVPDRFTGSGYGTDFTFTISTVQAEDLAVYFCQQDYSSPYTFGGGTKLEIKR
notes: as for B6

Kd [2]: 14.6 nM
koff [2]: 0.0047 s⁻¹
kon [2]: 322000 M⁻¹ s⁻¹
Kd [3]: 0.88 nM
koff [3]: 0.000203 s⁻¹
kon [3]: 231000 M⁻¹ s⁻¹
EC50 [4]: 0.16 nM
IC50 [5]: 0.23 nM
Reporter Activation (EC50, nM) human PD-1 cell (NFAT-luc)/human PD-L1 cell [6]: 23.4 nM
IC50 [7]: 1.34 nM
B11: mouse anti-PD-1 monoclonal antibody C1C5 (antibody, mouse IgG1, kappa, V domains shown)
VH: QIQLVQSGPELKKPGETVKISCKASGYTFTNYGINWVKQAPGKGLKWMGWINTYSGEPTYSDDFKGRFAFSLETSASTAYLQINNLKNEDTSTYFCVRQGDFDYEDAMDYWGQGTSVTVSS
VL: DVLMTQSPLSLPVSLGDQASISCRSSQSIVHSNGHIYLEWYLQKPGQSPKLLIYKVSKRFSGVPDRFSGSGSGTDFTLKISRVEAEDLGVYYCFQGSHGTFGGGTKLEIKR
notes: as for B6

Kd [2]: 31.7 nM
koff [2]: 0.00632 s⁻¹
kon [2]: 200000 M⁻¹ s⁻¹
Kd [3]: 1.05 nM
koff [3]: 0.000203 s⁻¹
kon [3]: 194000 M⁻¹ s⁻¹
EC50 [4]: 0.19 nM
IC50 [5]: 0.21 nM
Reporter Activation (EC50, nM) human PD-1 cell (NFAT-luc)/human PD-L1 cell [6]: 7.35 nM
IC50 [7]: 1.4 nM
B12: mouse anti-PD-1 monoclonal antibody D1F2 (antibody, mouse IgG1, kappa, V domains shown)
VH: EVMLVESGGGLVKPGGSLKLSCAASGFTFSSYTMSWVRQTPEKRLEWVATISGGGSNIYYPDSVEGRFTVSRDNARNTLYLHMSSLRSEDTALYYCVLNYAYAMDYWGQGTSVTVSS
VL: DIQMTQTTSSLSASLGDRVTISCRASQDISNFLNWYQQKPDGTVKLLIYYTSRLQSGVPSRFSGTGSGTDYSLTISNLEQEDLATYFCQQGSSLPWTFGGGTKLEIKR
notes: as for B6

Kd [2]: 11.3 nM
koff [2]: 0.00236 s⁻¹
kon [2]: 210000 M⁻¹ s⁻¹
Kd [3]: 2.06 nM
koff [3]: 0.000386 s⁻¹
kon [3]: 188000 M⁻¹ s⁻¹
EC50 [4]: 0.2 nM
IC50 [5]: 0.22 nM
Reporter Activation (EC50, nM) human PD-1 cell (NFAT-luc)/human PD-L1 cell [6]: 9.13 nM
IC50 [7]: 1.28 nM
B13: mouse anti-PD-1 monoclonal antibody D1A1 (antibody, mouse IgG1, kappa, V domains shown)
VH: EVMLVESGGGLVKPGGSLKLSCAASGFTFSNYAMSWVRQTPEKRLEWVATISGGGGNIYYPDSVKGRFTISRDNARNTLYLQMSSLRSEDTALYYCASPYANYVWYLDVWGAGTTVTVSS
VL: B12 VL with F32Y, Q55H, T65S, Y71F, Q80E, L83I, G91S, S92N, S93A
notes: as for B6

Kd [2]: 9.5 nM
koff [2]: 0.00331 s⁻¹
kon [2]: 348000 M⁻¹ s⁻¹
Kd [3]: 1.13 nM
koff [3]: 0.000189 s⁻¹
kon [3]: 168000 M⁻¹ s⁻¹
EC50 [4]: 0.18 nM
IC50 [5]: 0.27 nM
Reporter Activation (EC50, nM) human PD-1 cell (NFAT-luc)/human PD-L1 cell [6]: 12.1 nM
IC50 [7]: 1.4 nM
B14: mouse anti-PD-1 monoclonal antibody C1A1 (antibody, mouse IgG1, kappa, V domains shown)
VH: QVTLKESGPGILKPSQTLSLTCSFSGFSLSTSGMGVGWIRQPSGKGLEWLAHIWWDDDKFYNPSLKSQLTISKDTSRNQVFLKITSVDTADTATYYCARTGGFITTGYWYFDVWGAGTTVTVSS
VL: B12 VL with F32Y, N34I, P40T, V44L, Q55H, T65S, L83I, G91H, S92K, S93T
notes: as for B6
